Tests used:
[1] = target: T1, SARS-CoV-2 spike trimer S (Wuhan, SmT1) (SARS-CoV-2 Wuhan); test: SPR, antigen on chip
T1 construct: extracellular domain

[2] = target: T2, SARS-CoV-2 S1 (aa16-685) (Wuhan) (SARS-CoV-2 Wuhan, UniProt P0DTC2 16-685); test: SPR, antigen on chip
T2 construct: NRC; FLAG, 6xHis tags

[3] = target: T3, SARS-CoV-2 S2 (aa686-1208) (Wuhan) (SARS-CoV-2 Wuhan, UniProt P0DTC2 686-1208); test: SPR, antigen on chip
T3 construct: NRC; FLAG, 6xHis tags

[4] = target: T3, SARS-CoV-2 S2 (aa686-1208) (Wuhan); test: ELISA
SARS-CoV spike (S) = SARS-CoV spike (S) (SARS-CoV, UniProt P59594 14-1195); test: ELISA
[5] = target: T4, SARS-CoV-2 S on CHO-S cells (SARS-CoV-2, UniProt P0DTC2 14-1273); test: flow cytometry, CHO-S cells
T4 construct: whole, on cells

[6] = target: Human SARS-CoV-2_Wuhan S (SmT1) (SARS-CoV-2 (Wuhan), UniProt P0DTC2 14-1208); test: flow cytometry SVNA: VHH-Fc inhibits S binding to ACE2 on Vero E6 cells
[7] = target: SARS-CoV-2 S1-NTD (aa16-305) (SARS-CoV-2 Wuhan, UniProt P0DTC2 16-305); test: ELISA

Binder | Kd [1] | koff [1] | kon [1] | binding result [4] | binding result (SARS-CoV spike (S)) | Bmax [5] | EC50 [5] | also measured
NRCoV2-MRed25 VHH (VHH) VHH: EVQLVESGGGLVQAGGSLRLSCAASGHTFSRYGMGWFRQAPGKEREFVAAISWRGDSTYYRDSVNGRFTISRDNAKNTVYLGMNSLKPEDTAVYYCAAEMWGTATIVASRYTYWGQGTQVTVSS | 1.02 nM | 0.000115 s⁻¹ | 112000 M⁻¹ s⁻¹ | – | – | – | – | binding result [2]: no binding; Kd [3]: 1.56 nM; koff [3]: 0.00019 s⁻¹; kon [3]: 122000 M⁻¹ s⁻¹
NRCoV2-MRed19 VHH (VHH) VHH: EVQLVESGGGLVQPGGSLRLSCAASTIIFKGQTMGWFRQAPGNERELVATMTTSGSANYADSVKGRFTISRDNEKTVTLQMNSLKPEDTALYYCYMHSVYYGIDYWGKGTQVTVSS | 5.01 nM | 0.000799 s⁻¹ | 159000 M⁻¹ s⁻¹ | – | – | – | – | binding result [2]: no binding; Kd [3]: 8.2 nM; koff [3]: 0.00084 s⁻¹; kon [3]: 102000 M⁻¹ s⁻¹
NRCoV2-MRed06 VHH-Fc (Fc fusion, bivalent VHH-Fc) EVQLVESGGGLVQAGGSLRLSCAASGFTLAYYAIGWFRQAPGKEREGVSCISSSDGSAHYADSVKGRFTISRDNAKNTVSLQMNSLKPEDTAVYYCATDSFSSCSDYESGMDFWGKGTQVTVSS | – | – | – | no binding (tested: 13 nM) | no binding (tested: 13 nM) | 9020 | 8.5 nM | –
NRCoV2-MRed06 VHH (VHH) VHH: EVQLVESGGGLVQAGGSLRLSCAASGFTLAYYAIGWFRQAPGKEREGVSCISSSDGSAHYADSVKGRFTISRDNAKNTVSLQMNSLKPEDTAVYYCATDSFSSCSDYESGMDFWGKGTQVTVSS | 4.8 nM | 0.000887 s⁻¹ | 185000 M⁻¹ s⁻¹ | – | – | – | – | Kd [2]: 4.22 nM; koff [2]: 0.00157 s⁻¹; kon [2]: 371000 M⁻¹ s⁻¹; binding result [3]: no binding
NRCoV2-MRed11 VHH (VHH) VHH: EVQLVESGGGLVQAGGSLRLSCAASGFTFSSYAMSWHRQAPGKGLEWVSAINSGGGSTSYADSVKGRFAISRDNAKNTLYLQMNSLKPEDTAVYYCATTISDGSSWSTKSYRGQGTQVTVSS | 17.8 nM | 0.000418 s⁻¹ | 23400 M⁻¹ s⁻¹ | – | – | – | – | binding result [2]: no binding; Kd [3]: 5.21 nM; koff [3]: 0.000213 s⁻¹; kon [3]: 40900 M⁻¹ s⁻¹
NRCoV2-SR16 VHH-Fc (Fc fusion, bivalent VHH-Fc) QVQLVQSAGGLVQAGGSLRLSCVVSGTTFSRYHMGWHRQAPGKQRDFVAGISTSGAVTYADSAKGRFTISRDNAKNTVYLEMNSLKLEDTALYYCNTGGWDYRSSTFIMGLNWGQGTQVTVSS | – | – | – | no binding (tested: 13 nM) | no binding (tested: 13 nM) | 11600 | 1.4 nM | –
NRCoV2-MRed03 VHH-Fc (Fc fusion, bivalent VHH-Fc) EVQLVESGGGLVQPGGSLRLSCAAIGFTLDYYAIGWFRQAPGKEREGVSCISSSDGSTYYADSVKGRFTISRDNAKNTVYLQMNSLKPEDTAVYYCATDAFATCDSWYAQIAQYDFRGQGTQVTVSS | – | – | – | no binding (tested: 13 nM) | no binding (tested: 13 nM) | 12000 | 15.1 nM | –
NRCoV2-MRed03 VHH (VHH) VHH: EVQLVESGGGLVQPGGSLRLSCAAIGFTLDYYAIGWFRQAPGKEREGVSCISSSDGSTYYADSVKGRFTISRDNAKNTVYLQMNSLKPEDTAVYYCATDAFATCDSWYAQIAQYDFRGQGTQVTVSS | 0.52 nM | 8.14e-05 s⁻¹ | 157000 M⁻¹ s⁻¹ | – | – | – | – | Kd [2]: 0.223 nM; koff [2]: 6.15e-05 s⁻¹; kon [2]: 276000 M⁻¹ s⁻¹; binding result [3]: no binding
NRCoV2-17 VHH-Fc (Fc fusion, bivalent VHH-Fc) EVQLQQSGGGLVQTGGSLRLSCAAAGSPFSQLAMSWYRQISGKERAWVASISPTGNRSYSKIAKGRFTISRDNAKNTVTLQMTSLKPEDTAAYICQAANVNGGDYWGQGTQVTVSS | – | – | – | – | – | – | – | IC50 [6]: 8.6 nM
NRCoV2-MRed22 VHH (VHH) VHH: EVQLVESGGGLVQPGGSLRLSCAASGSVFASNAMGWYRQAPGKQRELVATISSRGSTNYADSVKGRFTISRDNAKNTVYLQMNSLGPEDTAVYYCNAREFTGFDYWGQGTQVTVSS | 0.506 nM | 0.000176 s⁻¹ | 347000 M⁻¹ s⁻¹ | – | – | – | – | binding result [2]: no binding; Kd [3]: 1.05 nM; koff [3]: 0.000284 s⁻¹; kon [3]: 270000 M⁻¹ s⁻¹
NRCoV2-05 VHH-Fc (Fc fusion, bivalent VHH-Fc) EVKLVQSGGGLVQPGGSLRLSCAASGFIFSNYAMNWVRQAPGKGLEWVSGINSGGGDTRYADSVKGRFTVSRDNAKNTLYLQMNSLKPEDTGVYYCSKGPVSSYYGSGYDYRGQGTQVTVSS | – | – | – | no binding (tested: 13 nM) | no binding (tested: 13 nM) | 17400 | 0.5 nM | binding result [7]: no binding (tested: 13 nM)
NRCoV2-10 VHH-Fc (Fc fusion, bivalent VHH-Fc) QLQLQESGGGLVQPGGSLTLSCAASGNTFSRSNMHWYRQAPGAQREWVAAISSRGISTYAYSAKGRFTISRDNAKNTVSLQMNSLKPEDTAVYYCYAADDLGDYWGQGTQVTVSS | – | – | – | – | – | – | – | IC50 [6]: 8.8 nM
NRCoV2-MRed18 VHH (VHH) VHH: EVQLVESGGGLVQPGGSLRLSCAASTTVFGRNAMGWYRQAPGKERELVATVSDGGTPNYADSVKGRFTISRDNAKNTIYLQMNSLEPEDTAVYYCNYYNYYYGRNFWGQGTQVTVSS | 7.56 nM | 0.00153 s⁻¹ | 202000 M⁻¹ s⁻¹ | – | – | – | – | binding result [2]: no binding; Kd [3]: 6.8 nM; koff [3]: 0.00103 s⁻¹; kon [3]: 152000 M⁻¹ s⁻¹
NRCoV2-04 VHH-Fc (Fc fusion, bivalent VHH-Fc) AVQLVDSGGGLVQPGGSLRLSCAASGSPFSNVVMAWYRQAPGKQRERVAFISGGGIADYIMSVKGRFTISRDNAKNTVYLQMNSLKPEDTAVYYCWSSYESTWGQGTQVTVSS [NRCoV2-04 VHH-Fc, listing 1 of 2 here] | – | – | – | no binding (tested: 13 nM) | no binding (tested: 13 nM) | 15500 | 1.3 nM | binding result [7]: no binding (tested: 13 nM)
NRCoV2-04 VHH-Fc (Fc fusion, bivalent VHH-Fc) AVQLVDSGGGLVQPGGSLRLSCAASGSPFSNVVMAWYRQAPGKQRERVAFISGGGIADYIMSVKGRFTISRDNAKNTVYLQMNSLKPEDTAVYYCWSSYESTWGQGTQVTVSS [NRCoV2-04 VHH-Fc, listing 2 of 2 here] | – | – | – | – | – | – | – | IC50 [6]: 10.8 nM
NRCoV2-SR02 VHH-Fc (Fc fusion, bivalent VHH-Fc) EVQLVDSGGGLVQAGGSLRLSCTASEFTLNYYSIGWFRQSPGKEREGVSCIRYSGGGIDYADSVKGRFTISRDNAKNTVYLTMNSLKPEDTAVYYCAADRLYSRACPTAGGRNYWGQGTQVTVSS | – | – | – | – | – | – | – | IC50 [6]: 1.7 nM
NRCoV2-15 VHH-Fc (Fc fusion, bivalent VHH-Fc) EVQLVSSGGGLVEAGGSLRLSCIASGSTSGRNTMGWFRQAPGKQREWVAIVSTSGATNYAGSVKGRFTLSRDNAKNAVYLQMNNLKPEDTAVYYCYAAYGGGGDYWGQGTQVTVSS | – | – | – | – | – | – | – | IC50 [6]: 5.8 nM
NRCoV2-MRed07 VHH-Fc (Fc fusion, bivalent VHH-Fc) EVQLVESGGGLVQPGGSLTLSCAASGSIGPFNTMGWYRQAPGNQREPAAIITRGGVTNYADSVKGRFTISRDNAKNAVYLQMDSLKPDDTAVYYCYANYGWAIPYWGNGTQVTVSS | – | – | – | no binding (tested: 13 nM) | no binding (tested: 13 nM) | 8670 | 132 nM | –
NRCoV2-MRed07 VHH (VHH) VHH: EVQLVESGGGLVQPGGSLTLSCAASGSIGPFNTMGWYRQAPGNQREPAAIITRGGVTNYADSVKGRFTISRDNAKNAVYLQMDSLKPDDTAVYYCYANYGWAIPYWGNGTQVTVSS | 0.236 nM | 0.000378 s⁻¹ | 1.6e+06 M⁻¹ s⁻¹ | – | – | – | – | Kd [2]: 0.378 nM; koff [2]: 0.000427 s⁻¹; kon [2]: 1.13e+06 M⁻¹ s⁻¹; binding result [3]: no binding
NRCoV2-MRed20 VHH (VHH) VHH: EVQLVESGGGSVQAGGSLRLSCAASGLSFSSYDMGWFRQAPGKEREFVAAIRESGSGTYYADSVKGRFTISRDNAKNTVYLQVSSLKPEDTAVYTCAAKPPFYGSGTYSTPRAYLYWGQGTQVTVSS | 0.0918 nM | 1.46e-05 s⁻¹ | 160000 M⁻¹ s⁻¹ | – | – | – | – | binding result [2]: no binding; Kd [3]: 0.299 nM; koff [3]: 3.38e-05 s⁻¹; kon [3]: 113000 M⁻¹ s⁻¹
NRCoV2-MRed05 VHH-Fc (Fc fusion, bivalent VHH-Fc) EVQLVESGGGLVQPGGSLRLSCAASGFTLDYYAIGWFRQAPGKEREGVSCISSSDGSTLYADSVKGRFTISRDNAKNTVYLQMNSLKPEDTAVYYCATGPQAYYSGSYYFQCPQAGMDYWGKGTQVTVSS | – | – | – | – | – | – | – | IC50 [6]: 4.3 nM
NRCoV2-02 VHH-Fc (Fc fusion, bivalent VHH-Fc) EVQLVESGGGLVQAGGSLRLSCAASGFTFSNYAMNWVRQAPGKGLEWVSGISGRGDDTRYADSVKGRFTISRDNAKNTLFLQMRSLRPEDTGVYRCTKGPDLYYFGSGYSDRGQGTQVTVSS | – | – | – | no binding (tested: 13 nM) | no binding (tested: 13 nM) | 18600 | 0.3 nM | binding result [7]: no binding (tested: 13 nM)
